T1: TDRD5 LOTUS domain 3 (L3) (Mus musculus, UniProt Q5VCS6 291-365)
T1 sequence: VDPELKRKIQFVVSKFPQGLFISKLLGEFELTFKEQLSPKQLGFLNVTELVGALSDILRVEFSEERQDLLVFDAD

T2: TDRD5 LOTUS domain 1 (L1) (Mus musculus, UniProt Q5VCS6 7-80)
T2 sequence: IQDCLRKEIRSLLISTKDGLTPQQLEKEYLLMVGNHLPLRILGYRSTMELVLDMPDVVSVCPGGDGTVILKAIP


Tests used:
[1] = molecular target: T1, TDRD5 LOTUS domain 3 (L3); test: ELISA
[2] = molecular target: T2, TDRD5 LOTUS domain 1 (L1); test: ELISA

Row | Binder | binding result [1] | binding result [2]
1 | GGGGGGGGGGGGGGGGGGG (ssRNA) [Poly(G)] | no binding | 
2 | TTAGGGTTAGGGTTAGGGTTAGGG (structured_DNA) [TERRA G4 DNA] |  | no binding
